Values belong to the molecule of their own block, whether it stands above or below them.
Key:
KHC(1–891)-3xmCit = assay: stepwise photobleaching of single molecules (TIRF microscopy); lysates of COS cells expressing 3xmCit-tagged constructs, in flow chambers with Cy5-microtubules, with AMPPNP; number of bleaching steps of 160–200 spots for each construct
mCit-KHC = assay: FRET or BRET; FRET stoichiometry (average FRET efficiency, E AVE) in live COS cells coexpressing mCit- and mCFP-tagged motors; Kinesin-1 with HA-KLC coexpressed
[1] = target: the molecule itself; assay: stepwise photobleaching of single molecules (TIRF microscopy); lysates of COS cells expressing 3xmCit-tagged constructs, in flow chambers with Cy5-microtubules, with AMPPNP; number of bleaching steps of 160–200 spots for each construct
[2] = target: the molecule itself; assay: cross-linking; cytosolic extracts of rat brain and detergent extracts of murine cortical neurons, with or without DMP; SDS-PAGE, immunoblot with anti-KIF1A

- stoichiometry N (KHC(1–891)-3xmCit): 2
Molecule: KHC(1–891)-3xmCit (domain or fragment)

- average FRET efficiency (E AVE), motor-to-motor (mCit-KHC): 2.1%
Molecule: mCFP-KHC (natural protein)

B1: KIF1A(1–393)-3xmCit (domain or fragment, rat, UniProt F1M4A4 1-393, looked up)
chain: MAGASVKVAVRVRPFNSREMSRDSKCIIQMSGSTTTIVNPKQPKETPKSFSFDYSYWSHTSPEDINYASQKQVYRDIGEEMLQHAFEGYNVCIFAYGQTGAGKSYTMMGKQEKDQQGIIPQLCEDLFSRINDTTNDNMSYSVEVSYMEIYCERVRDLLNPKNKGNLRVREHPLLGPYVEDLSKLAVTSYNDIQDLMDSGNKARTVAATNMNETSSRSHAVFNIIFTQKRHDAETNITTEKVSKISLVDLAGSERADSTGAKGTRLKEGANINKSLTTLGKVISALAEMDSGPNKNKKKKKTDFIPYRDSVLTWLLRENLGGNSRTAMVAALSPADINYDETLSTLRYADRAKQIRCNAIINEDPNNKLIRELKDEVTRLRDLLYAQGLGDITD
notes: source: COS cells, transfected, in lysate
- stoichiometry N [1]: 2

B2: KIF1A(1–726)-3xmCit (domain or fragment, rat, UniProt F1M4A4 1-726, looked up)
chain: MAGASVKVAVRVRPFNSREMSRDSKCIIQMSGSTTTIVNPKQPKETPKSFSFDYSYWSHTSPEDINYASQKQVYRDIGEEMLQHAFEGYNVCIFAYGQTGAGKSYTMMGKQEKDQQGIIPQLCEDLFSRINDTTNDNMSYSVEVSYMEIYCERVRDLLNPKNKGNLRVREHPLLGPYVEDLSKLAVTSYNDIQDLMDSGNKARTVAATNMNETSSRSHAVFNIIFTQKRHDAETNITTEKVSKISLVDLAGSERADSTGAKGTRLKEGANINKSLTTLGKVISALAEMDSGPNKNKKKKKTDFIPYRDSVLTWLLRENLGGNSRTAMVAALSPADINYDETLSTLRYADRAKQIRCNAIINEDPNNKLIRELKDEVTRLRDLLYAQGLGDITDTNTVPGGPKLTNALVGMSPSSSLSALSSRAASVSSLHERILFAPGSEEAIERLKETEKIIAELNETWEEKLRRTEAIRMEREALLAEMGVAMREDGGTLGVFSPKKTPHLVNLNEDPLMSECLLYYIKDGVTRVGREDAERRQDIVLSGHFIKEEHCIFRSDSRGGGEAVVTLEPCEGADTYVNGKKVTEPSILRSGNRIIMGKSHVFRFNHPEQARQERERTPCAETPAEPVDWAFAQRELLEKQGIDMKQEMEQRLQELEDQYRREREEATYLLEQQRLDYESKLEALQKQMDSRYYPEVNEEEEEPEDEVQWTERECELALWAFRKWKWY
notes: as for B1
- stoichiometry N [1]: 2

B3: endogenous KIF1A in murine cortical neurons (natural protein, UniProt P33173 1-1695, looked up)
chain: MAGASVKVAVRVRPFNSREMSRDSKCIIQMSGSTTTIVNPKQPKETPKSFSFDYSYWSHTSPEDINYASQKQVYRDIGEEMLQHAFEGYNVCIFAYGQTGAGKSYTMMGKQEKDQQGIIPQLCEDLFSRINDTTNDNMSYSVEVSYMEIYCERVRDLLNPKNKGNLRVREHPLLGPYVEDLSKLAVTSYNDIQDLMDSGNKPRTVAATNMNETSSRSHAVFNIIFTQKRHDAETNITTEKVSKISLVDLAGSERADSTGAKGTRLKEGANINKSLTTLGKVISALAEMDSGPNKNKKKKKTDFIPYRDSVLTWLLRENLGGNSRTAMVAALSPADINYDETLSTLRYADRAKQIRCNAIINEDPNNKLIRELKDEVTRLRDLLYAQGLGDITDMTNALVGMSPSSSLSALSSRAASVSSLHERILFAPGSEEAIERLKETEKIIAELNETWEEKLRRTEAIRMEREALLAEMGVAMREDGGTLGVFSPKKTPHLVNLNEDPLMSECLLYYIKDGVTRVGREDAERRQDIVLSGHFIKEEHCIFRSDSRGGGEAVVTLEPCEGADTYVNGKKVTEPSILRSGNRIIMGKSHVFRFNHPEQARQERERTPCAETPAEPVDWAFAQRELLEKQGIDMKQEMEQRLQELEDQYRREREEATYLLEQQRLDYESKLEALQKQMDSRYYPEVNEEEEEPEDEVQWTERECELALWAFRKWKWYQFTSLRDLLWGNAIFLKEANAISVELKKKVQFQFVLLTDTLYSPLPPDLLPPEAAKDRETRPFPRTIVAVEVQDQKNGATHYWTLEKLRQRLDLMREMYDRAAEVPSSVVEDCDNVVTGGDPFYDRFPWFRLVGRAFVYLSNLLYPVPLVHRVAIVSEKGEVKGFLRVAVQAISADEEAPDYGSGVRQSGTAKISFDDQHFEKFQSESCPVVGMSRSGTSQEELRIVEGQGQGADAGPSADEVNNNTCSAVPPEGLMDSPEKAALDGPLDTALDHLRLGSTFTFRVTVLQASSISAEYADIFCQFNFIHRHDEAFSTEPLKNTGRGPPLGFYHVQNIAVEVTKSFIEYIKSQPIVFEVFGHYQQHPFPPLCKDVLSPLRPSRRHFPRVMPLSKPVPATKLSTMTRPSPGPCHCKYDLLVYFEICELEANGDYIPAVVDHRGACMGTFLLHQGIQRRITVTLLHETGSHIRWKEVRELVVGRIRNTPETDEALIDPNILSLNILSSGYVHPAQDDRVFFGNDTRTFYQFEAAWDSSMHNSLLLNRVTPYREKIYMTLSAYIEMENCTQPAVITKDFCMVFYSRDAKLPASRSIRNLFGSGSLRATEGNRVTGVYELSLCHVADAGSPGMQRRRRRVLDTSVAYVRGEENLAGWRPRSDSLILDHQWELEKLSLLQEVEKTRHYLLLREKLETTQRPGPEVLSPASSEDSESRSSSGASSPLSAEGQPSPLEAPNERQRELAVKCLRLLMHTFNREYTHSHVCISASESKLSEMSVTLMRDPSMSPLGAATLTPSSTCPSLIEGRYGATDVRTPQPCSRPASPEPELLPELDSKKTPSPVRATETEKEPQRLLVPDIQEIRVSPIVSKKGYLHFLEPHTAGWAKRFVVVRRPYAYMYNSDKDTVERFVLNLSTAQVEYSEDQQAMLKTPNTFAVCTEHRGILLQANSDKDMHDWLYAFNPLLAGTIRSKLSRRRSAQMRV
notes: KIF1A, endogenous protein of murine cortical neurons; source: endogenous, detergent extract of murine cortical neurons
- stoichiometry N [2]: 2

B4: endogenous KIF1A in rat brain cytosol (natural protein, rat (endogenous in rat brain), UniProt F1M4A4 1-1707, looked up)
chain: MAGASVKVAVRVRPFNSREMSRDSKCIIQMSGSTTTIVNPKQPKETPKSFSFDYSYWSHTSPEDINYASQKQVYRDIGEEMLQHAFEGYNVCIFAYGQTGAGKSYTMMGKQEKDQQGIIPQLCEDLFSRINDTTNDNMSYSVEVSYMEIYCERVRDLLNPKNKGNLRVREHPLLGPYVEDLSKLAVTSYNDIQDLMDSGNKARTVAATNMNETSSRSHAVFNIIFTQKRHDAETNITTEKVSKISLVDLAGSERADSTGAKGTRLKEGANINKSLTTLGKVISALAEMDSGPNKNKKKKKTDFIPYRDSVLTWLLRENLGGNSRTAMVAALSPADINYDETLSTLRYADRAKQIRCNAIINEDPNNKLIRELKDEVTRLRDLLYAQGLGDITDTNTVPGGPKLTNALVGMSPSSSLSALSSRAASVSSLHERILFAPGSEEAIERLKETEKIIAELNETWEEKLRRTEAIRMEREALLAEMGVAMREDGGTLGVFSPKKTPHLVNLNEDPLMSECLLYYIKDGVTRVGREDAERRQDIVLSGHFIKEEHCIFRSDSRGGGEAVVTLEPCEGADTYVNGKKVTEPSILRSGNRIIMGKSHVFRFNHPEQARQERERTPCAETPAEPVDWAFAQRELLEKQGIDMKQEMEQRLQELEDQYRREREEATYLLEQQRLDYESKLEALQKQMDSRYYPEVNEEEEEPEDEVQWTERECELALWAFRKWKWYQFTSLRDLLWGNAIFLKEANAISVELKKKVQFQFVLLTDTLYSPLPPDLLPPEAAKDRETRPFPRTIVAVEVQDQKNGATHYWTLEKLRQRLDLMREMYDRAAEVPSSVVEDCDNVVTGGDPFYDRFPWFRLVGRAFVYLSNLLYPVPLVHRVAIVSEKGEVKGFLRVAVQAISADEEAPDYGSGVRQSGTAKISFDDQHFEKFQSESCPVVGMSRSGTSQEELRIVEGQGQGADAGPSADEVNNNTCSAVPPEGLLDSPEKAALDGPLDTALDHLRLGSTFTFRVTVLQASSISAEYADIFCQFNFIHRHDEAFSTEPLKNTGRGPPLGFYHVQNIAVEVTKSFIEYIKSQPIVFEVFGHYQQHPFPPLCKDVLSPLRPSRRHFPRVMPLSKPVPATKLSTMTRPSPGPCHCKYDLLVYFEICELEANGDYIPAVVDHRGGMPCMGTFLLHQGIQRRITVTLLHETGSHIRWKEVRELVVGRIRNTPETDEALIDPNILSLNILSSGYVHPAQDDRQFLDSDIPRTFYQFEAAWDSSMHNSLLLNRVTPYREKIYMTLSAYIEMENCTQPAVITKDFCMVFYSRDAKLPASRSIRNLFGSGSLRATEGNRVTGVYELSLCHVADAGSPGMQRRRRRVLDTSVAYVRGEENLAGWRPRSDSLILDHQWELEKLSLLQEVEKTRHYLLLREKLETTQRPVPEVLSPASSEDSESRSSSGASSPLSAEGQPSPLEVPNERQRELAVKCLRLLMHTFNREYTHSHVCISASESKLSEMSVTLMRDPSMSPLGAATLTPSSTCPSLIEGRYGATDVRTPQPCSRPASPEPELLPELDSKKTPSPVRATETEKEPQRLLVPDIQEIRVSPIVSKKGYLHFLEPHTAGWAKRFVVVRRPYAYMYNSDKDTVERFVLNLSTAQVEYSEDQQAMLKTPNTFAVCTEHRGILLQANSDKDMHDWLYAFNPLLAGTIRSKLSRRRSAQMRV
notes: KIF1A, endogenous protein of rat brain cytosol; source: endogenous, cytosolic extract of rat brain
- stoichiometry N [2]: 2

From PMC2661964, “Mammalian Kinesin-3 Motors Are Dimeric In Vivo and Move by Processive Motility upon Release of Autoinhibition” (PLoS Biology, 2009)
